The data set has as its system MS2 coat protein. Put plainly: apparent KD of MS2 coat protein; designed switch direction (-1 OFF switch, 1 ON switch): -1; higher = weaker reporter binding. In short, it runs like this: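 An oligonucleotide input, 200 uM small-molecule ligand, or no input was present during titration of SNAP-549-labelled MS2 coat protein, which was doubled from 0.7 or 1.5 nM to 3 µM. Designed RNA switches had been transcribed on Illumina chips by stalled E. coli RNA polymerase. Apparent KD per design is the median over clusters of curves fitted to normalised cluster fluorescence.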

Setting [1] is: input ligand: microRNA oligo, concentration not stated.
[2] abbreviates: Eterna round: R95, input ligand: FMN 200 uM.
Where [3] appears, read: Eterna round: R95, input ligand: microRNA oligo, concentration not stated.
Where [4] appears, read: Eterna round: R95, input ligand: none.

With “AAAGCAAAGACAGGAUAUCGACCCAGUGAUUUUCGUGCCGGAAACAUGAGGAUCACCCAUGUGUACGAGAAGGGUCAAAACAAC [Uslebeteat] (Eterna round: R96, puzzle: Exclusion NG 2)”, the “apparent KD of MS2 coat protein” value (input ligand: FMN 200 uM) came out at 0.0619 µM, the “apparent KD of MS2 coat protein” value under setting [1] was 0.0171 µM and the “apparent KD of MS2 coat protein” value (input ligand: none) was determined as 0.0223 µM.
As for “AAAGCGCGGUGAUAAUCUGUAACAUGAGGAUCACCCAUGUAGCAGGAUAUGGGCACAGUGGAAACUCAGAAGGGCUAUAAGCGC [Eternabot solution 21] (Eterna round: R96, puzzle: Exclusion NG 3)”, the “apparent KD of MS2 coat protein” value (input ligand: FMN 200 uM) was found to be 0.171 µM, the “apparent KD of MS2 coat protein” value under setting [1] was 0.369 µM and the “apparent KD of MS2 coat protein” value (input ligand: none) was 0.288 µM.
As to “AAAUACAAGCAAAGAUCCUACAUGAGGAUCACCCAUGUGCUCGUCUUAUAAAGUACUAUCACGAAAGUGAUAGUACA [Sensor 3, v1 - 15] (puzzle: Sensor v3, turn-off variant 1)”, the “apparent KD of MS2 coat protein” value was determined as 0.286 µM under setting [2], 0.0482 µM under setting [3] and 1.11 µM under setting [4].
Turning to “AAAUACAAGCAAAGAUUCUACAUGAGGAUCACCCAUGUGCUCGUCUUAUAAAGUACUAUCACGAAAGUGAUAGUACA [Sensor 3, v1 - 33] (puzzle: Sensor v3, turn-off variant 1)”, the “apparent KD of MS2 coat protein” value runs as follows: under setting [2], 0.0213 µM; under setting [3], 0.161 µM; under setting [4], 0.0232 µM.
Regarding “AAAUAGCAAGUUUGAUCCUACAUGAGGAUCACCCAUGUGUUCGUCUUAUUUGAAGACAACACAAAAGUGUUGUCUUA [Omei Mir OFFv1 B1] (Eterna round: R97, puzzle: Sensor, turn-off variant 1)”, the “apparent KD of MS2 coat protein” value is 1.1 µM (input ligand: FMN 200 uM) and 1.3 µM (input ligand: none).
As to “AAAUAGCGAGGAUAUACUGGAAUAGAAAAUAUUCGCAUGGCACAUGAGGAUCACCCAUGUAGAAGGCGCAGUAA (Eterna round: R97, puzzle: Exclusion 2)”, the “apparent KD of MS2 coat protein” value reads like this: (input ligand: FMN 200 uM) 0.0855 µM; (input ligand: none) 0.0255 µM.
With “AAAUAGCUAGAGGAUAUUGGAUAGGAUUUAGUGCGAGAAGGCUAGACAUGAGGAUCACCCAUGUUGUGUUGGGA [EX6 #14] (Eterna round: R97, puzzle: Exclusion 6)”, the “apparent KD of MS2 coat protein” value runs as follows: (input ligand: FMN 200 uM) 0.0823 µM; (input ligand: none) 0.0503 µM.
As for “AAAUCGGUAGAGGAUAUUGUACAGGAAACGGUGCGAGAAGGUUGCACAUGAGGAUCACCCAUGUUUAAUUGCGA [EX6 #49] (Eterna round: R97, puzzle: Exclusion 6)”, the “apparent KD of MS2 coat protein” value (input ligand: FMN 200 uM) is 0.0431 µM and the “apparent KD of MS2 coat protein” value (input ligand: none) stood at 0.0285 µM.
Turning to “AAAUUAGCAAGUAGGUCCGACAUGAGGAUCACCCAUGUUAUCUGAAAUAACGCAGCAUGAUUGUGCGCUCGUCUUAG [Sensor-V1 #7] (Eterna round: R97, puzzle: Sensor, turn-off variant 1)”, the “apparent KD of MS2 coat protein” value turned out to be 0.0676 µM (input ligand: FMN 200 uM) and 0.0686 µM (input ligand: none).
In the same order, the values of “AAAUUCAGAGGAUAUGCGCAUAGAUAAGACUUUUUUUCUUAACAUGAGGAUCACCCAUGUAGAAGGCUGUAAAA [Ex2 #60] (Eterna round: R97, puzzle: Exclusion 2)” are 0.0205 µM and 0.0184 µM.
As for “AACAAACAUGAGGAUCACCCAUGUGAGGAUAUGCAACAAAACAAAACAAAACAAAACAGCAGAAGGCACACAAC [A-G Solution By Eric] (puzzle: Exclusion 1)”, the “apparent KD of MS2 coat protein” value under setting [2] was 0.0172 µM, the “apparent KD of MS2 coat protein” value under setting [3] came out at 0.0192 µM and the “apparent KD of MS2 coat protein” value under setting [4] is 0.0146 µM.
With “AACAAUACUUACAUAAUAAGGCUUUUCAGGUCGGGUACCACAUGAGGAUCACCCAUGUAGCAGCCUAGGGAAUGAUA [JR_Sensorv2_tov2_Sub1233] (Eterna round: R96, puzzle: Sensor v2, turn-off variant 2)”, the “apparent KD of MS2 coat protein” value is, setting by setting: (input ligand: FMN 200 uM) 0.0492 µM; under setting [1], 0.0364 µM; (input ligand: none) 0.0461 µM.
Regarding “AACAGAUGAGGAUAUACACGAGGAGUGAUACCGUAUGCCAGACAUGAGGAUCACCCAUGUAGAAGGCAUAAUAG [Celeated] (Eterna round: R97, puzzle: Exclusion 2)”, the “apparent KD of MS2 coat protein” value (input ligand: FMN 200 uM) was 0.0189 µM and the “apparent KD of MS2 coat protein” value (input ligand: none) came to 0.0124 µM.
For “AACAGUACAGGAUAUACAUGAGGAUCACCCAUGUGAGAAUUAAGUGGAAAACCACAAAGUAGAAGGGUACUGGA [Mat - Exclusion 3 - JL mod - D3] (Eterna round: R96, puzzle: Exclusion 3)”, the “apparent KD of MS2 coat protein” value is, setting by setting: (input ligand: FMN 200 uM) 0.209 µM; under setting [1], 0.0233 µM.

(Values after the supplement of paper PMC9170038.)
